Results published in patent US20250136710A1.

Tests used:
[1] = biological target: human PVRIG expressed on cells (human) (UniProt Q6DKI7); assay: FACS
[2] = biological target: human PVRIG expressed on cells (human) (UniProt Q6DKI7); assay: FACS; Jurkat cells
[3] = biological target: mouse PVR protein, recombinant (mouse); assay: SPR / ELISA with recombinant proteins

Sequence of human PVRIG expressed on cells (human) (Q6DKI7 41-326): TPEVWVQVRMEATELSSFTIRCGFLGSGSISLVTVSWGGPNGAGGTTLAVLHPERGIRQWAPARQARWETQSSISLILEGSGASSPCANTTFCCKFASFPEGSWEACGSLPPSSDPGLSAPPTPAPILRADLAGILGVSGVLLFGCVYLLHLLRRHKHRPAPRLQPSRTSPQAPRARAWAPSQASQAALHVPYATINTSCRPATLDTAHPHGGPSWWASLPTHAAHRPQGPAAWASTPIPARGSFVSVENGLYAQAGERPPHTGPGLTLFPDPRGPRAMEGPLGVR

| Kd [1] [nM] | Kd [2] [nM] | fold lower affinity than the interaction with mPVRL2 [3] [fold] | Substance |
| --- | --- | --- | --- |
| 0.298 | 0.15 |  | PVRIG (COM701) |
|  |  | 10 | mouse PVRIG Fc (Fc fusion) |
